According to patent publication US20200055939A1 (Genentech, published 2020):
Residue numbers refer to the chain shown, from its start. Values belong to the binder of their own block, whether it stands above or below them.

How the values were obtained:
huMICA*002 alpha 3-his = biological target: T1, huMICA*002 alpha 3-his (human); assay: SPR, Biacore 8K, antibody on Protein A chip
T1 construct: whole construct entry: GS, alpha 3 domain, GNS, His8; also called MICA002.His; MICA*002 alpha3 construct
T1 chain: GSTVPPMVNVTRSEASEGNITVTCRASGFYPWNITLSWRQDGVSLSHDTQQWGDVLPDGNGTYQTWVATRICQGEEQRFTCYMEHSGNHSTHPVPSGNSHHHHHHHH

huMICA*008 alpha 3-his = biological target: T2, huMICA*008 alpha 3-his (human); assay: SPR, Biacore 8K, antibody on Protein A chip
T2 construct: whole construct entry: GS, alpha 3 domain (Thr204-Ser297), GNS, His8; also the construct of the FPOP experiment; also called MICA008.His; MICA*008 alpha3 construct
T2 chain: T1 chain with G28S, W32R, T35I, S37T, Q73R

huMICA*004 alpha 3-his = biological target: T3, huMICA*004 alpha 3-his (human); assay: SPR, Biacore 8K, antibody on Protein A chip
T3 construct: whole construct entry: GS, alpha 3 domain, GNS, His8; also called MICA004.His; MICA*004 alpha3 construct
T3 chain: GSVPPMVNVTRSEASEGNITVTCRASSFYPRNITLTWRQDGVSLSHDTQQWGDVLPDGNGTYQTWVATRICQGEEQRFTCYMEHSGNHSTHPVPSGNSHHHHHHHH

huMICB*005 alpha 3-his = biological target: T4, huMICB*005 alpha 3-his (human); assay: SPR, Biacore 8K, antibody on Protein A chip
T4 construct: whole construct entry: GS, alpha 3 domain, GNS, His8; also called MICB005.His; MICB*005 alpha3 construct
T4 chain: T1 chain with R12C, A15V, G28S, W32R, S37T, D48N, C72R, S90G

[1] = biological target: T5, MICA*008 on MEL-JUSO cells (human, UniProt Q29983 24-317); assay: cell-based or functional assay
T5 chain: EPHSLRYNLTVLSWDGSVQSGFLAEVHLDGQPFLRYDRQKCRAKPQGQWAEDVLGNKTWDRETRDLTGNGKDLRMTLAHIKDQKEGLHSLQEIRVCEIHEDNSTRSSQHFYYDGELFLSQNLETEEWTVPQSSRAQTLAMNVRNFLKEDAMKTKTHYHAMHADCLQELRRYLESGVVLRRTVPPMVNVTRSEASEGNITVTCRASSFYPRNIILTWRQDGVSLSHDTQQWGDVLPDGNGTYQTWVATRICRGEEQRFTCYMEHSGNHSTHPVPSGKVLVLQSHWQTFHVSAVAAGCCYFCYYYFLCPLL

[2] = biological target: MICB*005 on HCC1534 cells (human); assay: cell-based or functional assay
[3] = biological target: MICA*004 on HCC1534 cells (human, UniProt Q29983 24-383); assay: cell-based or functional assay
Throughout, for % Inhibition: test concentration or dose not given here.

Kd (huMICA*002 alpha 3-his): 1.31 nM
Kd (huMICA*008 alpha 3-his): 0.87 nM
Kd (huMICA*004 alpha 3-his): 0.95 nM
Kd (huMICB*005 alpha 3-his): 1.51 nM
% Inhibition [1]: 49%
% Inhibition [2]: 41%
% Inhibition [3]: 53%
B1: 1D5v9 (antibody, IgG1, V domains shown)
VH: EIQLVQSGAEVKKPGASVKVSCKASGYAFTSQNIYWVRQAPGQGLEWIGYIEPYNVVPMYNPKFKGRATLTVDKSTSTAYMELRSLRSDDTAVYYCARSGSSNFDYWGQGTLVTVSS
VL: DIQLTQSPSSLSASVGDRVTITCSASSSISSHYLHWYQQKPGKSPKLLIYRTSNLASGVPSRFSGSGSGTDYTLTISSLQPEDFATYYCQQGSSLPLTFGQGTKVEIK
notes: humanized variant of 1D5

Kd (huMICA*002 alpha 3-his): 1.14 nM
Kd (huMICA*008 alpha 3-his): 0.83 nM
Kd (huMICA*004 alpha 3-his): 0.88 nM
Kd (huMICB*005 alpha 3-his): 1.57 nM
% Inhibition [1]: 56%
% Inhibition [2]: 39%
% Inhibition [3]: 46%
B2: 1D5v20 (antibody, IgG1, V domains shown)
VH: B1 VH with A68V, M81L, R84S, D89E
VL: B1 VL
notes: humanized variant of 1D5

Kd (huMICA*002 alpha 3-his): 1.44 nM
Kd (huMICA*008 alpha 3-his): 1.05 nM
Kd (huMICA*004 alpha 3-his): 1.08 nM
Kd (huMICB*005 alpha 3-his): 1.98 nM
% Inhibition [1]: 58%
% Inhibition [2]: 43%
% Inhibition [3]: 62%
B3: 1D5v10 (antibody, IgG1, V domains shown)
VH: B1 VH with I2V, I48M, A68V, L70M, V72T, K74T
VL: B1 VL
notes: humanized variant of 1D5

Kd (huMICA*002 alpha 3-his): 0.91 nM
Kd (huMICA*008 alpha 3-his): 0.64 nM
Kd (huMICA*004 alpha 3-his): 0.68 nM
Kd (huMICB*005 alpha 3-his): 1.01 nM
% Inhibition [1]: 68%
% Inhibition [2]: 50%
% Inhibition [3]: 52%
B4: 1D5v17 (antibody, IgG1, V domains shown)
VH: B1 VH with M81L, R84S, D89E
VL: B1 VL with L4M
notes: humanized variant of 1D5

Kd (huMICA*002 alpha 3-his): 6.46 nM
Kd (huMICA*008 alpha 3-his): 4.98 nM
Kd (huMICA*004 alpha 3-his): 5.45 nM
Kd (huMICB*005 alpha 3-his): 13.2 nM
% Inhibition [1]: 57%
% Inhibition [2]: 34%
% Inhibition [3]: 46%
B5: 1D5v22 (antibody, IgG1, V domains shown)
VH: B1 VH with V72R, M81L, R84S, D89E
VL: B1 VL
notes: humanized variant of 1D5

Kd (huMICA*002 alpha 3-his): 4.09 nM
Kd (huMICA*008 alpha 3-his): 3.21 nM
Kd (huMICA*004 alpha 3-his): 3.42 nM
Kd (huMICB*005 alpha 3-his): 8.37 nM
% Inhibition [1]: 51%
% Inhibition [2]: 51%
% Inhibition [3]: 50%
B6: 1D5v16 (antibody, IgG1, V domains shown)
VH: B1 VH with I2V, A68V, L70I, V72R, K74T, M81L, R84S, D89E
VL: B1 VL with L4M, S44A, Y72F
notes: humanized variant of 1D5

Kd (huMICA*002 alpha 3-his): 1.85 nM
Kd (huMICA*008 alpha 3-his): 1.44 nM
Kd (huMICA*004 alpha 3-his): 1.52 nM
Kd (huMICB*005 alpha 3-his): 3.31 nM
% Inhibition [1]: 69%
% Inhibition [2]: -8%
% Inhibition [3]: 53%
B7: 1D5v27 (antibody, IgG1, V domains shown)
VH: B1 VH with M59A, M81L, R84S, D89E
VL: B1 VL
notes: humanized variant of 1D5

Kd (huMICA*002 alpha 3-his): 1.04 nM
Kd (huMICA*008 alpha 3-his): 0.75 nM
Kd (huMICA*004 alpha 3-his): 0.79 nM
Kd (huMICB*005 alpha 3-his): 1.41 nM
% Inhibition [1]: 64%
% Inhibition [2]: 41%
% Inhibition [3]: 47%
B8: 1D5v18 (antibody, IgG1, V domains shown)
VH: B1 VH with M81L, R84S, D89E
VL: B1 VL with Y72F
notes: humanized variant of 1D5

Kd (huMICA*002 alpha 3-his): 1.22 nM
Kd (huMICA*008 alpha 3-his): 0.93 nM
Kd (huMICA*004 alpha 3-his): 0.96 nM
Kd (huMICB*005 alpha 3-his): 1.84 nM
% Inhibition [1]: 62%
% Inhibition [2]: 28%
% Inhibition [3]: 46%
B9: 1D5v25 (antibody, IgG1, V domains shown)
VH: B1 VH with I2V, A68V, L70I, K74T, M81L, R84S, D89E
VL: B1 VL
notes: humanized variant of 1D5

Kd (huMICA*002 alpha 3-his): 4.64 nM
Kd (huMICA*008 alpha 3-his): 3.66 nM
Kd (huMICA*004 alpha 3-his): 3.91 nM
Kd (huMICB*005 alpha 3-his): 9.16 nM
% Inhibition [1]: 44%
% Inhibition [2]: 27%
% Inhibition [3]: 50%
B10: 1D5v12 (antibody, IgG1, V domains shown)
VH: B1 VH with I2V, A68V, L70I, V72R, K74T, M81L, R84S, D89E
VL: B1 VL
notes: humanized variant of 1D5

Kd (huMICA*002 alpha 3-his): 1.35 nM
Kd (huMICA*008 alpha 3-his): 0.99 nM
Kd (huMICA*004 alpha 3-his): 1.08 nM
Kd (huMICB*005 alpha 3-his): 1.98 nM
% Inhibition [1]: 62%
% Inhibition [2]: 25%
% Inhibition [3]: 55%
B11: 1D5v21 (antibody, IgG1, V domains shown)
VH: B1 VH with L70I, M81L, R84S, D89E
VL: B1 VL
notes: humanized variant of 1D5

Kd (huMICA*002 alpha 3-his): 3.9 nM
Kd (huMICA*008 alpha 3-his): 3.12 nM
Kd (huMICA*004 alpha 3-his): 3.17 nM
Kd (huMICB*005 alpha 3-his): 7.15 nM
% Inhibition [1]: 50%
% Inhibition [2]: 42%
% Inhibition [3]: 37%
B12: 1D5v26 (antibody, IgG1, V domains shown)
VH: B1 VH with I2V, A68V, L70I, V72R, M81L, R84S, D89E
VL: B1 VL
notes: humanized variant of 1D5

Kd (huMICA*002 alpha 3-his): 1.19 nM
Kd (huMICA*008 alpha 3-his): 0.84 nM
Kd (huMICA*004 alpha 3-his): 0.87 nM
Kd (huMICB*005 alpha 3-his): 1.49 nM
% Inhibition [1]: 0%
% Inhibition [2]: 36%
% Inhibition [3]: 3%
B13: 1D5v28 (antibody, IgG1, V domains shown)
VH: B1 VH with M59L, M81L, R84S, D89E
VL: B1 VL
notes: humanized variant of 1D5

Kd (huMICA*002 alpha 3-his): 1.06 nM
Kd (huMICA*008 alpha 3-his): 0.76 nM
Kd (huMICA*004 alpha 3-his): 0.81 nM
Kd (huMICB*005 alpha 3-his): 1.26 nM
% Inhibition [1]: 48%
% Inhibition [2]: 39%
% Inhibition [3]: 45%
B14: 1D5v15 (antibody, IgG1, V domains shown)
VH: B1 VH with M81L, R84S, D89E
VL: B1 VL with L4M, S44A, Y72F
notes: humanized variant of 1D5

Kd (huMICA*002 alpha 3-his): 1.2 nM
Kd (huMICA*008 alpha 3-his): 0.85 nM
Kd (huMICA*004 alpha 3-his): 0.91 nM
Kd (huMICB*005 alpha 3-his): 1.48 nM
% Inhibition [1]: 51%
% Inhibition [2]: 43%
% Inhibition [3]: 49%
B15: 1D5v13 (antibody, IgG1, V domains shown)
VH: B1 VH
VL: B1 VL with L4M, S44A, Y72F
notes: humanized variant of 1D5

Kd (huMICA*002 alpha 3-his): 1.21 nM
Kd (huMICA*008 alpha 3-his): 1.41 nM
Kd (huMICA*004 alpha 3-his): 0.9 nM
Kd (huMICB*005 alpha 3-his): 1.62 nM
% Inhibition [1]: 65%
% Inhibition [2]: 43%
% Inhibition [3]: 50%
B16: 1D5v24 (antibody, IgG1, V domains shown)
VH: B1 VH with I2V, A68V, L70I, M81L, R84S, D89E
VL: B1 VL
notes: humanized variant of 1D5

Kd (huMICA*002 alpha 3-his): 1.11 nM
Kd (huMICA*008 alpha 3-his): 0.58 nM
Kd (huMICA*004 alpha 3-his): 0.9 nM
Kd (huMICB*005 alpha 3-his): 1.65 nM
% Inhibition [1]: 63%
% Inhibition [2]: 38%
% Inhibition [3]: 50%
B17: 1D5v23 (antibody, IgG1, V domains shown)
VH: B1 VH with K74T, M81L, R84S, D89E
VL: B1 VL
notes: humanized variant of 1D5

Kd (huMICA*002 alpha 3-his): 2.01 nM
Kd (huMICA*008 alpha 3-his): 1.65 nM
Kd (huMICA*004 alpha 3-his): 1.58 nM
Kd (huMICB*005 alpha 3-his): 3.86 nM
% Inhibition [1]: 57%
% Inhibition [2]: -8%
% Inhibition [3]: 40%
B18: 1D5v29 (antibody, IgG1, V domains shown)
VH: B1 VH with M59V, M81L, R84S, D89E
VL: B1 VL
notes: humanized variant of 1D5

Kd (huMICA*002 alpha 3-his): 1.16 nM
Kd (huMICA*008 alpha 3-his): 0.83 nM
Kd (huMICA*004 alpha 3-his): 0.88 nM
Kd (huMICB*005 alpha 3-his): 1.51 nM
% Inhibition [1]: 57%
% Inhibition [2]: 40%
% Inhibition [3]: 44%
B19: 1D5v19 (antibody, IgG1, V domains shown)
VH: B1 VH with I2V, M81L, R84S, D89E
VL: B1 VL
notes: humanized variant of 1D5

Kd (huMICA*002 alpha 3-his): 4.44 nM
Kd (huMICA*008 alpha 3-his): 2.56 nM
Kd (huMICA*004 alpha 3-his): 5.32 nM
Kd (huMICB*005 alpha 3-his): 3.15 nM
% Inhibition [1]: 12%
% Inhibition [2]: 60%
% Inhibition [3]: 10%
B20: 13A9v2 (antibody, IgG1, V domains shown)
VH: EVQLVQSGAEVKKPGASVKVSCKASGYAFTNYLIEWVRQAPGQGLEWIGAINPGSGATNYNEKFKDRATLTADKSTNTAYLELSSLRSEDTAVYFCARFLGNYFDNWGQGTLVTVSS
VL: DIQMTQSPSSLSASVGDRVTITCRASGNIHSYLAWYQQKPGKAPKLLIYYAETLADGVPSRFSGSGSGTDFTLTISSLQPEDFATYYCQQFWTTPYTFGQGTKVEIK
notes: humanized variant of 13A9

Kd (huMICA*002 alpha 3-his): 5.87 nM
Kd (huMICA*008 alpha 3-his): 5.6 nM
Kd (huMICA*004 alpha 3-his): 8.37 nM
Kd (huMICB*005 alpha 3-his): 5.12 nM
% Inhibition [1]: 10%
% Inhibition [2]: 43%
% Inhibition [3]: 12%
B21: 13A9v1 (antibody, IgG1, V domains shown)
VH: B20 VH with A68V, L70I, K74T, N77S, F95Y
VL: B20 VL
notes: humanized variant of 13A9
